Read-outs that look alike come from different tables or passages of the source. Where no end group is shown, it is not given here. [ ]: non-standard residue; d: D form. pY = N[C@@H](Cc1ccc(OP(=O)(O)O)cc1)C(=O)O; pT = C[C@@H](OP(=O)(O)O)[C@H](N)C(=O)O; pS = N[C@@H](COP(=O)(O)O)C(=O)O
How the values were obtained:
Assay in all cases: FP
[1] = target: T1, PIK3R1 (p85) N-terminal SH2 domain (321-433) (human, UniProt P27986 321-433)
[2] = target: T2, PIK3R1 (p85) C-terminal SH2 domain (614-724) (human, UniProt P27986 614-724)
[3] = target: T1, PIK3R1 (p85) N-terminal SH2 domain …; remark: listed apart in the source
[4] = target: T2, PIK3R1 (p85) C-terminal SH2 domain …; remark: listed apart in the source

T2 sequence (P27986 614-724): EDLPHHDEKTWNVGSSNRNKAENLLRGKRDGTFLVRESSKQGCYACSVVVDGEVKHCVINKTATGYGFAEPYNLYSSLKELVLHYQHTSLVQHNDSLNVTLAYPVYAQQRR
T1 sequence (P27986 321-433): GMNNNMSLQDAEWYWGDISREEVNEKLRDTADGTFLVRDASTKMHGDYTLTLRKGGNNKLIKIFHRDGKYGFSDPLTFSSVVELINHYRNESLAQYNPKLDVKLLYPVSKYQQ

Binder	Kd [1] [nM]	Kd [2] [nM]	Kd [3] [nM]	Kd [4] [nM]
GRKGSGD[pY]MPM[pS]PKS [ppIRS1, IRS1 peptide dually phosphorylated (pY632 + pS636)]	306	5.1		
RSRLLHSD[pY]MNMTPRR [p0CD28, CD28 peptide with phosphotyrosine only (pY191)]			104	11
GRKGSGDYMPMSPKS (phosphotyrosine at Y632; phosphoserine at S636; C-terminal lysine-ε-carboxyfluorescein label) [CF-ppIRS1, carboxyfluorescein-labelled pY632 + pS636 IRS1 peptide]	412	10.6	383	5.7
GRKGSGD[pY]MPMSPKS [p0IRS1, IRS1 peptide with phosphotyrosine only (pY632)]	184	8.1		
RSRLLHSD[pY]MNM[pT]PRR [ppCD28, CD28 peptide dually phosphorylated (pY191 + pT195)]			285	22.9

From publication PMC9481563 (2022)
